Numbering of substitutions follows the chain as printed. Numbers in names are those of the source.
B1: DPD variant A380V (enzyme, human, UniProt Q12882 4-1025, looked up)
chain: VLSKDSADIESILALNPRTQTHATLCSTSAKKLDKKHWKRNPDKNCFNCEKLENNFDDIKHTTLGERGALREAMRCLKCADAPCQKSCPTNLDIKSFITSIANKNYYGAAKMIFSDNPLGLTCGMVCPTSDLCVGGCNLYATEEGPINIGGLQQFATEVFKAMSIPQIRNPSLPPPEKMSEAYSAKIALFGAGPASISCASFLARLGYSDITIFEKQEYVGGLSTSEIPQFRLPYDVVNFEIELMKDLGVKIICGKSLSVNEMTLSTLKEKGYKAAFIGIGLPEPNKDAIFQGLTQDQGFYTSKDFLPLVAKGSKAGMCACHSPLPSIRGVVIVLGAGDTAFDCATSALRCGARRVFIVFRKGFVNIRAVPEEMELVKEEKCEFLPFLSPRKVIVKGGRIVAMQFVRTEQDETGKWNEDEDQMVHLKADVVISAFGSVLSDPKVKEALSPIKFNRWGLPEVDPETMQTSEAWVFAGGDVVGLANTTVESVNDGKQASWYIHKYVQSQYGASVSAKPELPLFYTPIDLVDISVEMAGLKFINPFGLASATPATSTSMIRRAFEAGWGFALTKTFSLDKDIVTNVSPRIIRGTTSGPMYGPGQSSFLNIELISEKTAAYWCQSVTELKADFPDNIVIASIMCSYNKNDWTELAKKSEDSGADALELNLSCPHGMGERGMGLACGQDPELVRNICRWVRQAVQIPFFAKLTPNVTDIVSIARAAKEGGANGVTATNTVSGLMGLKSDGTPWPAVGIAKRTTYGGVSGTAIRPIALRAVTSIARALPGFPILATGGIDSAESGLQFLHSGASVLQVCSAIQNQDFTVIEDYCTGLKALLYLKSIEELQDWDGQSPATVSHQKGKPVPRIAELMDKKLPSFGPYLEQRKKIIAENKIRLKEQNVAFSPLKRNCFIPKRPIPTIKDVIGKALQYLGTFGELSNVEQVVAMIDEEMCINCGKCYMTCNDSGYQAIQFDPETHLPTITDTCTGCTLCLSVCPIVDCIKMVSRTTPYEPKRGVPLSVNPVC
notes: dihydropyrimidine dehydrogenase (DPD), human, DPYD cDNA with a variant found in Japanese individuals; made by site-directed mutagenesis of the wild-type construct; also called 1139C > T; source: 293FT cells, transfected (pcDNA3.4), soluble fraction
B2: DPD variant R592W (enzyme, human, UniProt Q12882 4-1025, looked up)
chain: B1 chain with V377A, R589W
notes: dihydropyrimidine dehydrogenase (DPD), human, DPYD cDNA with a variant found in Japanese individuals; made by site-directed mutagenesis of the wild-type construct; also called 1774C > T; source: 293FT cells, transfected (pcDNA3.4), soluble fraction
B3: DPD variant T990I (enzyme, human, UniProt Q12882 4-1025, looked up)
chain: B1 chain with V377A, T987I
notes: dihydropyrimidine dehydrogenase (DPD), human, DPYD cDNA with a variant found in Japanese individuals; made by site-directed mutagenesis of the wild-type construct; also called 2969C > T; source: 293FT cells, transfected (pcDNA3.4), soluble fraction
B4: DPD variant V738L (enzyme, human, UniProt Q12882 4-1025, looked up)
chain: B1 chain with V377A, V735L
notes: dihydropyrimidine dehydrogenase (DPD), human, DPYD cDNA with a variant found in Japanese individuals; made by site-directed mutagenesis of the wild-type construct; also called 2212G > C; source: 293FT cells, transfected (pcDNA3.4), soluble fraction
B5: DPD risk variant I560S (DPYD*13) (enzyme, human, UniProt Q12882 4-1025, looked up)
chain: B1 chain with V377A, I557S
notes: dihydropyrimidine dehydrogenase (DPD), human, DPYD cDNA with a risk variant reported in Caucasians; made by site-directed mutagenesis of the wild-type construct; also called c.1679T>G; 1679T > G (*13); source: 293FT cells, transfected (pcDNA3.4), soluble fraction
B6: DPD variant G748D (enzyme, human, UniProt Q12882 4-1025, looked up)
chain: B1 chain with V377A, G745D
notes: dihydropyrimidine dehydrogenase (DPD), human, DPYD cDNA with a variant found in Japanese individuals; made by site-directed mutagenesis of the wild-type construct; also called 2243G > A; source: 293FT cells, transfected (pcDNA3.4), soluble fraction
B7: DPD variant H807R (enzyme, human, UniProt Q12882 4-1025, looked up)
chain: B1 chain with V377A, H804R
notes: dihydropyrimidine dehydrogenase (DPD), human, DPYD cDNA with a variant found in Japanese individuals; made by site-directed mutagenesis of the wild-type construct; source: 293FT cells, transfected (pcDNA3.4), soluble fraction
B8: DPD variant K384E (enzyme, human, UniProt Q12882 4-1025, looked up)
chain: B1 chain with V377A, K381E
notes: dihydropyrimidine dehydrogenase (DPD), human, DPYD cDNA with a variant found in Japanese individuals; made by site-directed mutagenesis of the wild-type construct; also called 1150A > G; source: 293FT cells, transfected (pcDNA3.4), soluble fraction
B9: DPD variant F438V (enzyme, human, UniProt Q12882 4-1025, looked up)
chain: B1 chain with V377A, F435V
notes: dihydropyrimidine dehydrogenase (DPD), human, DPYD cDNA with a variant found in Japanese individuals; made by site-directed mutagenesis of the wild-type construct; also called 1312T > G; source: 293FT cells, transfected (pcDNA3.4), soluble fraction
B10: DPD variant Y109N (enzyme, human, UniProt Q12882 4-1025, looked up)
chain: B1 chain with Y106N, V377A
notes: dihydropyrimidine dehydrogenase (DPD), human, DPYD cDNA with a variant found in Japanese individuals; made by site-directed mutagenesis of the wild-type construct; also called 325T > A; source: 293FT cells, transfected (pcDNA3.4), soluble fraction
B11: DPD variant S175L (enzyme, human, UniProt Q12882 4-1025, looked up)
chain: B1 chain with S172L, V377A
notes: dihydropyrimidine dehydrogenase (DPD), human, DPYD cDNA with a variant found in Japanese individuals; made by site-directed mutagenesis of the wild-type construct; also called 524C > T; source: 293FT cells, transfected (pcDNA3.4), soluble fraction
B12: DPD variant M77V (enzyme, human, UniProt Q12882 4-1025, looked up)
chain: B1 chain with M74V, V377A
notes: dihydropyrimidine dehydrogenase (DPD), human, DPYD cDNA with a variant found in Japanese individuals; made by site-directed mutagenesis of the wild-type construct; also called 229A > G; source: 293FT cells, transfected (pcDNA3.4), soluble fraction
B13: DPD variant S939N (enzyme, human, UniProt Q12882 4-1025, looked up)
chain: B1 chain with V377A, S936N
notes: dihydropyrimidine dehydrogenase (DPD), human, DPYD cDNA with a variant found in Japanese individuals; made by site-directed mutagenesis of the wild-type construct; also called 2816G > A; source: 293FT cells, transfected (pcDNA3.4), soluble fraction
B14: DPD variant Q604L (enzyme, human, UniProt Q12882 4-1025, looked up)
chain: B1 chain with V377A, Q601L
notes: dihydropyrimidine dehydrogenase (DPD), human, DPYD cDNA with a variant found in Japanese individuals; made by site-directed mutagenesis of the wild-type construct; also called 1811A > T; source: 293FT cells, transfected (pcDNA3.4), soluble fraction
B15: DPD variant R886H (enzyme, human, UniProt Q12882 4-1025, looked up)
chain: B1 chain with V377A, R883H
notes: dihydropyrimidine dehydrogenase (DPD), human, DPYD cDNA with a variant found in Japanese individuals; made by site-directed mutagenesis of the wild-type construct; also called 2657G > A (*9B); source: 293FT cells, transfected (pcDNA3.4), soluble fraction
B16: DPD variant A191V (enzyme, human, UniProt Q12882 4-1025, looked up)
chain: B1 chain with A188V, V377A
notes: dihydropyrimidine dehydrogenase (DPD), human, DPYD cDNA with a variant found in Japanese individuals; made by site-directed mutagenesis of the wild-type construct; also called 572C > T; source: 293FT cells, transfected (pcDNA3.4), soluble fraction
B17: DPD variant I528V (enzyme, human, UniProt Q12882 4-1025, looked up)
chain: B1 chain with V377A, I525V
notes: dihydropyrimidine dehydrogenase (DPD), human, DPYD cDNA with a variant found in Japanese individuals; made by site-directed mutagenesis of the wild-type construct; also called 1582A > G; source: 293FT cells, transfected (pcDNA3.4), soluble fraction
B18: DPD variant I560V (enzyme, human, UniProt Q12882 4-1025, looked up)
chain: B1 chain with V377A, I557V
notes: dihydropyrimidine dehydrogenase (DPD), human, DPYD cDNA with a variant found in Japanese individuals; made by site-directed mutagenesis of the wild-type construct; also called 1678A > G; source: 293FT cells, transfected (pcDNA3.4), soluble fraction
B19: DPD variant V515I (enzyme, human, UniProt Q12882 4-1025, looked up)
chain: B1 chain with V377A, V512I
notes: dihydropyrimidine dehydrogenase (DPD), human, DPYD cDNA with a variant found in Japanese individuals; made by site-directed mutagenesis of the wild-type construct; also called 1543G > A; source: 293FT cells, transfected (pcDNA3.4), soluble fraction
B20: DPD variant V826M (enzyme, human, UniProt Q12882 4-1025, looked up)
chain: B1 chain with V377A, V823M
notes: dihydropyrimidine dehydrogenase (DPD), human, DPYD cDNA with a variant found in Japanese individuals; made by site-directed mutagenesis of the wild-type construct; also called 2476G > A; source: 293FT cells, transfected (pcDNA3.4), soluble fraction
B21: DPD variant I543V (enzyme, human, UniProt Q12882 4-1025, looked up)
chain: B1 chain with V377A, I540V
notes: dihydropyrimidine dehydrogenase (DPD), human, DPYD cDNA with a variant found in Japanese individuals; made by site-directed mutagenesis of the wild-type construct; also called 1627A > G (*5); source: 293FT cells, transfected (pcDNA3.4), soluble fraction
B22: DPD variant V434L (enzyme, human, UniProt Q12882 4-1025, looked up)
chain: B1 chain with V377A, V431L
notes: dihydropyrimidine dehydrogenase (DPD), human, DPYD cDNA with a variant found in Japanese individuals; made by site-directed mutagenesis of the wild-type construct; also called 1300G > C; source: 293FT cells, transfected (pcDNA3.4), soluble fraction
B23: DPD risk variant D949V (enzyme, human, UniProt Q12882 4-1025, looked up)
chain: B1 chain with V377A, D946V
notes: dihydropyrimidine dehydrogenase (DPD), human, DPYD cDNA with a risk variant reported in Caucasians; made by site-directed mutagenesis of the wild-type construct; also called c.2846A>T; 2846A > T; source: 293FT cells, transfected (pcDNA3.4), soluble fraction
B24: DPD variant N151D (enzyme, human, UniProt Q12882 4-1025, looked up)
chain: B1 chain with N148D, V377A
notes: dihydropyrimidine dehydrogenase (DPD), human, DPYD cDNA with a variant found in Japanese individuals; made by site-directed mutagenesis of the wild-type construct; also called 451A > G; source: 293FT cells, transfected (pcDNA3.4), soluble fraction
B25: DPD variant T768K (enzyme, human, UniProt Q12882 4-1025, looked up)
chain: B1 chain with V377A, T765K
notes: dihydropyrimidine dehydrogenase (DPD), human, DPYD cDNA with a variant found in Japanese individuals; made by site-directed mutagenesis of the wild-type construct; also called 2303C > A; source: 293FT cells, transfected (pcDNA3.4), soluble fraction
B26: DPD variant M166V (enzyme, human, UniProt Q12882 4-1025, looked up)
chain: B1 chain with M163V, V377A
notes: dihydropyrimidine dehydrogenase (DPD), human, DPYD cDNA with a variant found in Japanese individuals; made by site-directed mutagenesis of the wild-type construct; also called 496A > G; source: 293FT cells, transfected (pcDNA3.4), soluble fraction
B27: DPD variant V732I (enzyme, human, UniProt Q12882 4-1025, looked up)
chain: B1 chain with V377A, V729I
notes: dihydropyrimidine dehydrogenase (DPD), human, DPYD cDNA with a variant found in Japanese individuals; made by site-directed mutagenesis of the wild-type construct; also called 2194G > A (*6); source: 293FT cells, transfected (pcDNA3.4), soluble fraction
B28: DPD variant F524L (enzyme, human, UniProt Q12882 4-1025, looked up)
chain: B1 chain with V377A, F521L
notes: dihydropyrimidine dehydrogenase (DPD), human, DPYD cDNA with a variant found in Japanese individuals; made by site-directed mutagenesis of the wild-type construct; also called 1572T > G; source: 293FT cells, transfected (pcDNA3.4), soluble fraction
B29: DPD variant N893S (enzyme, human, UniProt Q12882 4-1025, looked up)
chain: B1 chain with V377A, N890S
notes: dihydropyrimidine dehydrogenase (DPD), human, DPYD cDNA with a variant found in Japanese individuals; made by site-directed mutagenesis of the wild-type construct; also called 2678A > G; source: 293FT cells, transfected (pcDNA3.4), soluble fraction
B30: DPD variant I843T (enzyme, human, UniProt Q12882 4-1025, looked up)
chain: B1 chain with V377A, I840T
notes: dihydropyrimidine dehydrogenase (DPD), human, DPYD cDNA with a variant found in Japanese individuals; made by site-directed mutagenesis of the wild-type construct; also called 2528T > C; source: 293FT cells, transfected (pcDNA3.4), soluble fraction
B31: DPD variant C29R (enzyme, human, UniProt Q12882 4-1025, looked up)
chain: B1 chain with C26R, V377A
notes: dihydropyrimidine dehydrogenase (DPD), human, DPYD cDNA with a variant found in Japanese individuals; made by site-directed mutagenesis of the wild-type construct; also called 85T > C (*9A, *9B); source: 293FT cells, transfected (pcDNA3.4), soluble fraction

Target: the molecule itself
Assay: native gel or EMSA; blue native PAGE (Tris-glycine buffer, 5%-20% polyacrylamide gels), 9 μg of the soluble fraction of transfected 293FT cells per lane, immunoblot with polyclonal anti-human DPD antibody; monomer to dimer

Row | Protein | stoichiometry N
1 | B1 | 2
2 | B2 | 2
3 | B3 | 2
4 | B4 | 2
5 | B5 | 2
6 | B6 | 2
7 | B7 | 2
8 | B8 | 2
9 | B9 | 2
10 | B10 | 2
11 | B11 | 2
12 | B12 | 2
13 | B13 | 2
14 | B14 | 2
15 | B15 | 2
16 | B16 | 2

Row | Protein | stoichiometry N
17 | B17 | 2
18 | B18 | 2
19 | B19 | 2
20 | B20 | 2
21 | B21 | 2
22 | B22 | 2
23 | B23 | 2
24 | B24 | 2
25 | B25 | 2
26 | B26 | 2
27 | B27 | 2
28 | B28 | 2
29 | B29 | 2
30 | B30 | 2
31 | B31 | 2
